In patent publication EP4806514A2 (Lepu Biopharma Co., Ltd., dated 2025):

T1: hCDH17-his (full length extracellular domain of human CDH17, Q23-M787, his tag at the C-terminal) (human, UniProt Q12864 23-787)
T1 construct: Limits of the construct (UniProt Q12864, Q23-M787, C-terminal his tag); also called human CDH17-his protein; human CDH17 protein
T1 sequence: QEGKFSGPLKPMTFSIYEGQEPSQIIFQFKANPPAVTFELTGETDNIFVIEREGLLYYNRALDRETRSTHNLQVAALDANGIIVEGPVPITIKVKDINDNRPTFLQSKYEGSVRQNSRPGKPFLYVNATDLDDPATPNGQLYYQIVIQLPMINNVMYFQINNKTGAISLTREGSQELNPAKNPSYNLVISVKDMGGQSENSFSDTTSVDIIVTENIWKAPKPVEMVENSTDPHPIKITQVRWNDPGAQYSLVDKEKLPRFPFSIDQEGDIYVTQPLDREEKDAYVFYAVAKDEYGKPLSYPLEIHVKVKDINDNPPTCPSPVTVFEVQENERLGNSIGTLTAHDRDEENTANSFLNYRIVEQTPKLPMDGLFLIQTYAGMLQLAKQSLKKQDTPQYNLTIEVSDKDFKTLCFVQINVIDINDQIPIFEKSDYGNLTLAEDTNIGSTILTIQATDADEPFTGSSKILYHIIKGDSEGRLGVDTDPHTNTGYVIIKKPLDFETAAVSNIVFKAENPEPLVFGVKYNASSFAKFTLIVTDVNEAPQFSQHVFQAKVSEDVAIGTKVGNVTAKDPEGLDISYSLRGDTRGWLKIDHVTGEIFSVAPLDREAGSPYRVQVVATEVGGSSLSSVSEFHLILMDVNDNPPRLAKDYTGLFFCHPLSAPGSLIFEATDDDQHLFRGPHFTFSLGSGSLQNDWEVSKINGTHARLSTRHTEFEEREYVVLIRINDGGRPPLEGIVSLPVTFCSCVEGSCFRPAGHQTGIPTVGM


biological target: T1, hCDH17-his (full length extracellular …); assay: SPR (Biacore 8K), antibody captured on Protein A chip, hCDH17-his injected

| binding result | Binder |
| --- | --- |
| binds | 29H8D3-z22 (antibody, V domains shown, Humanized, human IgG1 constant region) VH: QVQLVQSGAEVKKPGASVKVSCKASGYTFTDHTIHWVRQAPGQGLEWIGYIYPRDGYTKYNEKFKDRATMTTDTSTSTAYMELRSLRSDDTAVYYCARFYYGYWYFDVWGQGTTVTVSS VL: DIVMTQSPLSLPVTPGEPASISCRSSKSLLRSNGNTYLYWFLQKPGQSPQVLIYRMSNLASGVPDRFSGSGSGTAFTLKISRVEAEDVGVYYCMQHLEYPFTFGAGTKLEIK |
| binds | 29H8D3-z18 (antibody, V domains shown, Humanized, human IgG1 constant region) VH: QVQLVQSGAEVKKPGASVKVSCKASGYTFTDHTIHWVRQAPGQGLEWIGYIYPRDGYTKYNEKFKDRATMTTDTSTSTAYMELRSLRSDDTAVYYCARFYYGYWYFDVWGQGTTVTVSS VL: DIVMTQSPLSLPVTPGEPASISCRSSKSLLRSNGNTYLYWFLQKPGQSPQVLIYRMSNLASGVPDRFSGSGSGTAFTLKISRVEAEDVGVYYCMQHLEYPFTFGQGTKLEIK |
| binds | 29H8D3-z20 (antibody, V domains shown, Humanized, human IgG1 constant region) VH: QVQLVQSGAEVKKPGASVKVSCKASGYTFTDHTIHWMRQRPGQGLEWIGYIYPRDGYTKYNEKFKDRATLTADTSTSTAYMELRSLRSDDTAVYYCARFYYGYWYFDVWGQGTTVTVSS VL: DIVMTQSPLSLPVTPGEPASISCRSSKSLLRSNGNTYLYWFLQKPGQSPQVLIYRMSNLASGVPDRFSGSGSGTAFTLKISRVEAEDVGVYYCMQHLEYPFTFGQGTKLEIK |

Further lines, the binder ahead of its results:

| Binder | binding result |
| --- | --- |
| 29H8D3-z17 (antibody, V domains shown, Humanized, human IgG1 constant region) VH: QVQLVQSGAEVKKPGASVKVSCKASGYTFTDHTIHWVRQAPGQGLEWMGYIYPRDGYTKYNEKFKDRVTMTTDTSTSTAYMELRSLRSDDTAVYYCARFYYGYWYFDVWGQGTTVTVSS VL: DIVMTQSPLSLPVTPGEPASISCRSSKSLLRSNGNTYLYWFLQKPGQSPQVLIYRMSNLASGVPDRFSGSGSGTAFTLKISRVEAEDVGVYYCMQHLEYPFTFGQGTKLEIK | binds |
| 29H8D3-z19 (antibody, V domains shown, Humanized, human IgG1 constant region) VH: QVQLVQSGAEVKKPGASVKVSCKASGYTFTDHTIHWMRQAPGQGLEWIGYIYPRDGYTKYNEKFKDRATMTTDTSTSTAYMELRSLRSDDTAVYYCARFYYGYWYFDVWGQGTTVTVSS VL: DIVMTQSPLSLPVTPGEPASISCRSSKSLLRSNGNTYLYWFLQKPGQSPQVLIYRMSNLASGVPDRFSGSGSGTAFTLKISRVEAEDVGVYYCMQHLEYPFTFGQGTKLEIK | binds |
| 29H8D3-z23 (antibody, V domains shown, Humanized, human IgG1 constant region) VH: QVQLVQSGAEVKKPGASVKVSCKASGYTFTDHTIHWMRQAPGQGLEWIGYIYPRDGYTKYNEKFKDRATMTTDTSTSTAYMELRSLRSDDTAVYYCARFYYGYWYFDVWGQGTTVTVSS VL: DIVMTQSPLSLPVTPGEPASISCRSSKSLLRSNGNTYLYWFLQKPGQSPQVLIYRMSNLASGVPDRFSGSGSGTAFTLKISRVEAEDVGVYYCMQHLEYPFTFGAGTKLEIK | binds |
| 29H8D3-z21 (antibody, V domains shown, Humanized, human IgG1 constant region) VH: QVQLVQSGAEVKKPGASVKVSCKASGYTFTDHTIHWVRQAPGQGLEWMGYIYPRDGYTKYNEKFKDRVTMTTDTSTSTAYMELRSLRSDDTAVYYCARFYYGYWYFDVWGQGTTVTVSS VL: DIVMTQSPLSLPVTPGEPASISCRSSKSLLRSNGNTYLYWFLQKPGQSPQVLIYRMSNLASGVPDRFSGSGSGTAFTLKISRVEAEDVGVYYCMQHLEYPFTFGAGTKLEIK | binds |
